Laboratory results taken from article doi:10.1101/2021.10.06.463398, “Disruption of nucleoid expanded conformation by toxic aberrant proteins synthesized in Escherichia coli” (bioRxiv, 2021).
The star is where a group is joined. FITC = O=C1OC2(c3ccc(O)cc3Oc3cc(O)ccc32)c2ccc(NC(=S)*)cc21

Target: T1, 6His-DnaK (E. coli molecular chaperone DnaK) (E. coli, UniProt P0A6Y8 1-638)
T1 construct: No tag removal is described; also called purified E. coli DnaK protein; source: E. coli, ASKA expression clone, purified (Ni-NTA agarose)
Test: MST; 20 nM fluorescein-labelled peptide with varying concentrations of DnaK; MST buffer (50 mM Tris pH 7.4, 150 mM NaCl, 10 mM MgCl2, 0.05% Tween-20, 0.05% bovine serum albumin); 1 h at 20°C; Monolith NT.115
Settings: both partners purified

T1 sequence (P0A6Y8 whole entry): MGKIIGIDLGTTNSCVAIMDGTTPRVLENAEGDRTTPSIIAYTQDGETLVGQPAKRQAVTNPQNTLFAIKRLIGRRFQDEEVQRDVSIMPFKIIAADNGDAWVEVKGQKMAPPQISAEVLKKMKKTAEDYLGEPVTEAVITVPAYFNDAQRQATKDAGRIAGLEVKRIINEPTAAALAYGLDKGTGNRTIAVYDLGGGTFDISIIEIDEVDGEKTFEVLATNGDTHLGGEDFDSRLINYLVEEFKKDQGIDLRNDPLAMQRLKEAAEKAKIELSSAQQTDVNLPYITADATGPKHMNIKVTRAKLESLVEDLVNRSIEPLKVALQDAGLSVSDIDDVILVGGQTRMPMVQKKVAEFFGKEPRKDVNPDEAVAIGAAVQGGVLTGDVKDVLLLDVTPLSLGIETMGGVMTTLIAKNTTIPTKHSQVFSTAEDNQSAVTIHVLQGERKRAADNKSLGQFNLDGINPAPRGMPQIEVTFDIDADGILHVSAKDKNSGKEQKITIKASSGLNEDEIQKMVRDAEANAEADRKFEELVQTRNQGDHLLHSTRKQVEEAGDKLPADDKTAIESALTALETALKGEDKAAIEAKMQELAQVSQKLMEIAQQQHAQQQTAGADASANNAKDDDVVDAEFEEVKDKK

B1: KL peptide, FITC-TEKAKLVIKLLALGKTEQ-NH2 (KL decapeptide of ARF48 with flanking extensions) (peptide)
peptide: {FITC}-TEKAKLVIKLLALGKTEQ-NH2
notes: ARF48 is a 48-residue product of the +1 alternate reading frame of Arabidopsis thaliana cDNA At3G62370, not a natural protein), C-terminal extension KTEQ; The core decapeptide is not part of a natural protein: it is an alternate-reading-frame translation product; also called synthetic KL decapeptide; source: synthetic peptide (Peptide 2.0, Inc.)
Q: Does B1 bind?
A: Result: binds

B2: NR peptide, FITC-TEKANRLLLTGKTEQ-NH2 (canonical DnaK peptide substrate NRLLLTG with flanking extensions) (peptide)
peptide: {FITC}-TEKANRLLLTGKTEQ-NH2
notes: N-terminal extension TEKA, canonical DnaK substrate heptapeptide NRLLLTG, C-terminal extension KTEQ; source: synthetic peptide (Peptide 2.0, Inc.)
Q: Does B2 bind?
A: Result: binds
